Assay results from patent US20190127481A1 (UNIVERSIT T Z RICH, published 2019).

Assays:
[1] = molecular target: T1, HER2 (ErbB2/Neu) on the surface of HER2-overexpressing cancer cells (human, UniProt P04626 23-1255); assay: dissociation from BT474 cells by flow cytometry in the presence of a competing DARPin
T1 construct: whole, on cells; also called HER2 on BT474, SkBr3, SkOv3 cells

[2] = molecular target: T2, HER2 (form in the assay not stated) (human, UniProt P04626 23-652, limits assumed); assay: method not stated
[3] = molecular target: T2, HER2 (form in the assay not stated); assay: method and HER2 form not stated
[4] = molecular target: T1, HER2 (ErbB2/Neu) on the surface of …; assay: flow cytometry on intact BT474 cells, Alexa488-labelled agent
Procedure: Cells were detached by collagenase and EDTA for 5 min at 37° C. The solution was quenched by addition of medium and centrifuged at 300 g for 3 min. Cells were washed twice in warm PBS. […] Internalization was blocked by incubation in PBS containing 0.2% NaN₃ and 1% BSA for 30 min at 37° C.
For each time point, a 1 ml aliquot of cells is withdrawn and subjected to FACS. Since the applied concentrations of the labeled ligand conjugates are very low, and since the time resolution of the measurement is to be maintained to ensure the accuracy of the on-rate determination, the samples are processed without further washing. For each time point, at least 10⁴ intact cells (gated as a uniform population on a FSC/SSC scatter plot) are counted, and the MFI (mean fluorescence intensity) is recorded.
Corresponding to 100 μl cell suspension, samples were washed twice in 1 ml PBS (0.2% NaN₃, 1% BSA) and centrifuged at 600 g for 30 sec at room temperature. Cells were resuspended in 1 ml PBS (0.2% NaN₃, 1% BSA) containing 100 nM of equivalent unlabeled binding agent. The dissociation reaction was incubated for the indicated times (15, 30, 60, 120, 180 and 240 min) at room temperature while continuously stirring in the dark. Dissociation was stopped by placing the cell pellets on ice. Each sample was washed once with 1 ml cold PBS.

| Binder | fold lower off-rate than monovalent G3 [1] [fold] | Kd [2] [nM] | Kd [3] [nM] | koff [3] [s⁻¹] | kon [3] [M⁻¹ s⁻¹] | Kd [4] [nM] | koff [4] [s⁻¹] | kon [4] [M⁻¹ s⁻¹] |
| --- | --- | --- | --- | --- | --- | --- | --- | --- |
| G3-(G4S)4-9_26 (designed binder, fluorescently labelled in FIG. 18A (dye and site not carried by the letters), Opposite orientation of 6_20_G; also called G_20_6) MRGSHHHHHHGSDLGKKLLEAARAGQDDEVRILMANGADVNAKDEYGLTPLYLATAHGHLEIVEVLLKNGADVNAVDAIGFTPLHLAAFIGHLEIAEVLLKHGADVNAQDKFGKTAFDISIGNGNEDLAEILQKLGGGGSGGGGSGGGGSGGGGSRSDLGKKLLEAARAGQDDEVRILMANGADVNAKDFYGITPLHLAAAYGHLEIVEVLLKHGADVNAHDWNGWTPLHLAAKYGHLEIVEVLLKHGADVNAIDNAGKTPLHLAAAHGHLEIVEVLLKYGADVNAQDKFGKTAFDISIDNGNEDLAEILQKLN | 10 | – | – | – | – | – | – | – |
| 9_29-(G4S)4-G3 (designed binder, fluorescently labelled in FIG. 18A (dye and site not carried by the letters), 20 amino acid (G4S)4 linker; also called 9_20_G) MRGSHHHHHHGSDLGKKLLEAARAGQDDEVRILMANGADVNAHDFYGITPLHLAANFGHLEIVEVLLKHGADVNAFDYDNTPLHLAADAGHLEIVEVLLKYGADVNASDRDGHTPLHLAAREGHLEIVEVLLKNGADVNAQDKFGKTAFDISIDNGNEDLAEILQKLGGGGSGGGGSGGGGSGGGGSRSDLGKKLLEAARAGQDDEVRILMANGADVNAKDEYGLTPLYLATAHGHLEIVEVLLKNGADVNAVDAIGFTPLHLAAFIGHLEIAEVLLKHGADVNAQDKFGKTAFDISIGNGNEDLAEILQKLN | 10 | – | – | – | – | – | – | – |
| 9_26-(G4S)4-G3 (designed binder, fluorescently labelled in the dissociation assay; dye and site not stated, 20 amino acid (G4S)4 linker; also called 6_20_G) MRGSHHHHHHGSDLGKKLLEAARAGQDDEVRILMANGADVNAKDFYGITPLHLAAAYGHLEIVEVLLKHGADVNAHDWNGWTPLHLAAKYGHLEIVEVLLKHGADVNAIDNAGKTPLHLAAAHGHLEIVEVLLKYGADVNAQDKFGKTAFDISIDNGNEDLAEILQKLGGGGSGGGGSGGGGSGGGGSRSDLGKKLLEAARAGQDDEVRILMANGADVNAKDEYGLTPLYLATAHGHLEIVEVLLKNGADVNAVDAIGFTPLHLAAFIGHLEIAEVLLKHGADVNAQDKFGKTAFDISIGNGNEDLAEILQKLN | 10 | – | – | – | – | – | – | – |
| DARPin G3 (designed binder) GSDLGKKLLEAARAGQDDEVRILMANGADVNAKDEYGLTPLYLATAHGHLEIVEVLLKNGADVNAVDAIGFTPLHLAAFIGHLEIAEVLLKHGADVNAQDKFGKTAFDISIGNGNEDLAEILQKLN | – | 0.09 | – | – | – | – | – | – |
| DARPin H14 (designed binder) GSDLGKKLLEAARAGQDDEVRILMANGADVNATDIHGHTPLHLAAAMGHLEIVEVLLKNGADVNANDWRGFTPLHLAALNGHLEIVEVLLKNGADVNATDTAGNTPLHLAAWFGHLEIVEVLLKNGADVNAQDKFGKTAFDISIDNGNEDLAEILQKLN | – | – | 0.2 | 0.0001 | 410000 | 0.97 | 0.000179 | 196000 |
| DARPin 926 (designed binder, Member of the 9XX collection) MRGSHHHHHHGSDLGKKLLEAARAGQDDEVRILMANGADVNAKDFYGITPLHLAAAYGHLEIVEVLLKHGADVNAHDWNGWTPLHLAAKYGHLEIVEVLLKHGADVNAIDNAGKTPLHLAAAHGHLEIVEVLLKYGADVNAQDKFGKTAFDISIDNGNEDLAEILQKLN | – | 1 | 1.4 | 0.0001 | 70000 | – | – | – |
| DARPin 929 (designed binder, Alexa Fluor-488 label in the flow-cytometry kinetics (attachment site not given), Member of the 9XX collection) MRGSHHHHHHGSDLGKKLLEAARAGQDDEVRILMANGADVNAHDFYGITPLHLAANFGHLEIVEVLLKHGADVNAFDYDNTPLHLAADAGHLEIVEVLLKYGADVNASDRDGHTPLHLAAREGHLEIVEVLLKNGADVNAQDKFGKTAFDISIDNGNEDLAEILQKLN | – | 1 | 3.8 | 0.0008 | 200000 | 33.5 | 0.00221 | 69000 |
